# In PMC9018529 (Molecular microbiology, 2022):
# B1: SymE (Escherichia coli MG1655), untagged after TEV cleavage of His6-TEV-SymE (natural protein, E. coli MG1655, UniProt P39394 1-113, looked up)
# chain: MTDTHSIAQPFEAEVSPANNRHVTVGYASRYPDYSRIPAITLKGQWLEAAGFATGTAVDVKVMEGCIVLTAQPPAAEESELMQSLRQVCKLSARKQKQVQAFIGVIAGKQKVA
# Target: the molecule itself
# Experiment: SEC
protein,measurement,value
B1,stoichiometry N,~4
